Laboratory results as given in PMC8969154, “Deglutarylation of glutaryl-CoA dehydrogenase by deacylating enzyme SIRT5 promotes lysine oxidation in mice” (The Journal of Biological Chemistry, 2022).

Columns and labels:
[1] = molecular target: the molecule itself; test: native gel or EMSA; BN-PAGE (NativePAGE 4-16% Bis-Tris) of liver mitochondria solubilised in 2% n-dodecyl-β-D-maltoside, 0.5% G-250; immunoblot for GCDH; SIRT5WT and SIRT5KO mice, fed or 24 h fasted; GCDHKO mitochondria as control for the band
[2] = molecular target: the molecule itself; test: SEC; Superdex 200 Increase 10/300 GL, 25 mM Hepes pH 7.8, 30 mM NaCl, 0.75 ml/min; column calibrated with standard proteins; comparison of unmodified and modified GCDH told as data not shown

B1: glutaryl-CoA dehydrogenase (GCDH), endogenous, mouse liver mitochondria (enzyme, mouse (endogenous in liver mitochondria), UniProt Q60759 45-438, looked up)
chain: RPVFDWKDPLILEEQLTADEKLIRDTFRNYCQERLMSRILLANRNEVFHRDIVYEMGELGVLGPTIKGYGCAGVSSVAYGLLTRELERVDSGYRSMMSVQSSLVMHPIYTYGSEEQRQKYLPGLAKGELLGCFGLTEPNHGSDPGGMETRARHNPSNQSYTLSGTKTWITNSPVADLFIVWARCEDNCIRGFILEKGMRGLSAPRIEGKFSLRASATGMIIMDSVEVPEENVLPNVSSLAGPFGCLNTARYGITWGVLGAAEFCLHTARQYALDRIQFGVPLARNQLVQKKLADMLTEITLGLHACLQLGRLKDQDKATPEMVSMLKRNNCGKALDIARQARDILGGNGISDEYHVIRHAMNLEAVNTYEGTHDIHALILGRAITGIQAFTVGK
notes: glutaryl-CoA dehydrogenase, mouse, endogenous in liver mitochondria of SIRT5WT and SIRT5KO mice (GCDHKO mitochondria used to identify the band); Glutarylation state differs with genotype and feeding state (higher in starved SIRT5KO liver); also called GCDH tetramer; source: endogenous, mouse liver mitochondria solubilised in 2% n-dodecyl-β-D-maltoside
- stoichiometry N [1]: 4

B2: human recombinant GCDH protein (hGCDH-6XHIS), unmodified (enzyme, UniProt Q92947 45-438, looked up)
chain: RPEFDWQDPLVLEEQLTTDEILIRDTFRTYCQERLMPRILLANRNEVFHREIISEMGELGVLGPTIKGYGCAGVSSVAYGLLARELERVDSGYRSAMSVQSSLVMHPIYAYGSEEQRQKYLPQLAKGELLGCFGLTEPNSGSDPSSMETRAHYNSSNKSYTLNGTKTWITNSPMADLFVVWARCEDGCIRGFLLEKGMRGLSAPRIQGKFSLRASATGMIIMDGVEVPEENVLPGASSLGGPFGCLNNARYGIAWGVLGASEFCLHTARQYALDRMQFGVPLARNQLIQKKLADMLTEITLGLHACLQLGRLKDQDKAAPEMVSLLKRNNCGKALDIARQARDMLGGNGISDEYHVIRHAMNLEAVNTYEGTHDIHALILGRAITGIQAFTASK
notes: hGCDH-6XHIS 'modified from UniProtKB - Q92947'; printed residue numbers count on the full-length human GCDH protein; also called recombinant human GCDH; unmodified GCDH
- stoichiometry N [2]: 4

B3: chemically glutarylated human recombinant GCDH (glutaryl-GCDH) (enzyme, UniProt Q92947 45-438, looked up)
chain: B2 chain
modifications: glutaryl-lysine by chemical glutarylation: 10 sites found; heavily glutarylated K163, K170, K202, K240, K253, K357, K371, K377 (numbers of full-length human GCDH)
notes: as the chain of m2, chemically glutarylated; printed residue numbers count on the full-length human GCDH protein; also called glutarylated GCDH; modified GCDH
- stoichiometry N [2]: 4

B4: chemically succinylated human recombinant GCDH (succinyl-GCDH) (enzyme, UniProt Q92947 45-438, looked up)
chain: B2 chain
modifications: succinyl-lysine by chemical succinylation: 11 sites found (shown in Fig. S3D, not given)
notes: as the chain of m2, chemically succinylated; printed residue numbers count on the full-length human GCDH protein; also called succinylated GCDH; modified GCDH
- stoichiometry N [2]: 4
